These results are taken from article PMC9482650, “Quantitative fragmentomics allow affinity mapping of interactomes” (Nature Communications, 2022).

Among the targets are CASK, O14936; DLG1_3, Q12959; FRMPD2_1, Q68DX3; GIPC2, Q8TF65; GORASP1, Q9BQQ3; GRIP2_6, Q9C0E4; Inadl_1, Q8NI35; Inadl_6, Q8NI35; MAGI2_5, Q86UL8; MAST2, Q6P0Q8; SCRIB_1, Q14160.
What all share (assay): holdup assay
Design in all cases: key: below the threshold = too weak to quantify, mostly under pKd 3.1 to 4

The next assay deals with T1, APBA2_1, Q99767.
T1 sequence (Q99767 563-664, limits assumed, looked up): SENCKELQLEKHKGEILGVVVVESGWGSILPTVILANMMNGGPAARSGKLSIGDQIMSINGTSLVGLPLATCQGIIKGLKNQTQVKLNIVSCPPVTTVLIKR

The next assay concerns the target T2, ARHGEF11, O15085.
T2 sequence (O15085 42-136, limits assumed, looked up): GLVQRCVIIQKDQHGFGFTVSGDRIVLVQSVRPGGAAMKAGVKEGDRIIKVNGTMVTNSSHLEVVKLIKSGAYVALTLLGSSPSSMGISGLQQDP

The target in the next assay is T3, DFNB31_1, Q9P202.
T3 sequence (Q9P202 135-233, limits assumed, looked up): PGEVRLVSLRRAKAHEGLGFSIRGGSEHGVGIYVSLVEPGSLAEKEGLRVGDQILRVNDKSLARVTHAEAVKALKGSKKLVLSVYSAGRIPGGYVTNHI

In a further assay the target is T4, DFNB31_3, Q9P202.
T4 sequence (Q9P202 811-907, limits assumed, looked up): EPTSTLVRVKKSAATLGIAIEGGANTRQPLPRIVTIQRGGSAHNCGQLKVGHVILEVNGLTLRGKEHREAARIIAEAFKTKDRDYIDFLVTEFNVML

The target in another assay is T5, GRIP1_4, Q9Y3R0.
T5 sequence (Q9Y3R0 467-571, limits assumed, looked up): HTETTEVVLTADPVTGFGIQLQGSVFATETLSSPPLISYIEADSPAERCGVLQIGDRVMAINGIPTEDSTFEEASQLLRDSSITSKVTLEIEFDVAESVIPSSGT

A further assay addresses T6, GRIP1_5, Q9Y3R0.
T6 sequence (Q9Y3R0 568-668, limits assumed, looked up): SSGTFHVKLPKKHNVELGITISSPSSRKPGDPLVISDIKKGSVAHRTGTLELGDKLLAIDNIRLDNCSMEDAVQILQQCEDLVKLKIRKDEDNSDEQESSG

Another assay concerns the target T7, HTRA3, P83110.
T7 sequence (P83110 354-453, limits assumed, looked up): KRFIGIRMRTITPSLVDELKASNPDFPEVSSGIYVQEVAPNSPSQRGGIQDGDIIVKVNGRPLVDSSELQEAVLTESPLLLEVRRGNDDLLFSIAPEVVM

In the next assay the target is T8, LIN7B, Q9HAP6.
T8 sequence (Q9HAP6 88-185, limits assumed, looked up): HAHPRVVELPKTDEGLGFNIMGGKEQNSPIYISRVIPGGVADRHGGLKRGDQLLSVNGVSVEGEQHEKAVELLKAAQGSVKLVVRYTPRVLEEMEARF

The next assay has as its target T9, MPP7, Q5T2T1.
T9 sequence (Q5T2T1 134-230, limits assumed, looked up): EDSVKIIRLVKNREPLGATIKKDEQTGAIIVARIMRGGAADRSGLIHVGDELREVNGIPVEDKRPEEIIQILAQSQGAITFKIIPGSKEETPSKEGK

In a further assay the target is T10, PDZRN3_1, Q9UPQ7.
T10 sequence (Q9UPQ7 244-349, limits assumed, looked up): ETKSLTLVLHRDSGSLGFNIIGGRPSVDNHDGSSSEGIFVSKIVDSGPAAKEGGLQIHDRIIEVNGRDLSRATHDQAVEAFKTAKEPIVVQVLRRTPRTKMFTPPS

Another assay deals with T11, RAPGEF6, Q8TEU7.
T11 sequence (Q8TEU7 525-625, limits assumed, looked up): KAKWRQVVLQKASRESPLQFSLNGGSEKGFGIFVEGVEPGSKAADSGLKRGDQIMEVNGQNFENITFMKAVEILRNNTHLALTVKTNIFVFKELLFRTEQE

Another assay deals with T12, SNTB1, Q13884.
T12 sequence (Q13884 107-205, limits assumed, looked up): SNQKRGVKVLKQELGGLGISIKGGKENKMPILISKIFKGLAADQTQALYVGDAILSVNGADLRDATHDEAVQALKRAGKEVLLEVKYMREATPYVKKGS

The target of another assay is T13, TX1BP3, O14907.
T13 sequence (O14907 10-122, limits assumed, looked up): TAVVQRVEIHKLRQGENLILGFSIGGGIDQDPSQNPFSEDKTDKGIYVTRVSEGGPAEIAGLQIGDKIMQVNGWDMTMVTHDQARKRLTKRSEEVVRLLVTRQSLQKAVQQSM

Where [1] appears, read: plain residues with an end cap or a label only (N-terminal biotin on a linker: ado-ado).
Where [2] appears, read: plain residues with an end cap or a label only (N-terminal biotin on a linker: ahx).

For orientation: pKd means the negative decadic logarithm of the Kd, by convention in mol/L.

Inadl_6, Q8NI35, sequence (Q8NI35 1058-1167): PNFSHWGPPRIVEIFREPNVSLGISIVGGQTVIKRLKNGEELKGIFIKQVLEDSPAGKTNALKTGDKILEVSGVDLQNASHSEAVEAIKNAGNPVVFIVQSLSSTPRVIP
MAGI2_5, Q86UL8, sequence (Q86UL8 915-1017): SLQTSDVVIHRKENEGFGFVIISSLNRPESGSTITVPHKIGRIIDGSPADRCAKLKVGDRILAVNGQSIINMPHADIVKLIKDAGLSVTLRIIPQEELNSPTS
DLG1_3, Q12959, sequence (Q12959 457-571): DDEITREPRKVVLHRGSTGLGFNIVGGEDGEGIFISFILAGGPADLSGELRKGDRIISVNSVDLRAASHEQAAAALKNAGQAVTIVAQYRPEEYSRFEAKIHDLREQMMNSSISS
Inadl_1, Q8NI35, sequence (Q8NI35 113-229): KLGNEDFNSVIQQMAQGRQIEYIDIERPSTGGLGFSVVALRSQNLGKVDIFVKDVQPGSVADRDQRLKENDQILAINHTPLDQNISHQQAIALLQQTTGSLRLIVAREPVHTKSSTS
CASK, O14936, sequence (O14936 487-570): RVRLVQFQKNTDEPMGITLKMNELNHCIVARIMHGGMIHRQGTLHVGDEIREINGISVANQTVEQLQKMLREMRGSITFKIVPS
MAST2, Q6P0Q8, sequence (Q6P0Q8 1099-1202): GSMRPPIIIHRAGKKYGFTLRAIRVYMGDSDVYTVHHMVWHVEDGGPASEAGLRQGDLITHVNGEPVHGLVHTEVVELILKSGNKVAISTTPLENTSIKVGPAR
GIPC2, Q8TF65, sequence (Q8TF65 112-203): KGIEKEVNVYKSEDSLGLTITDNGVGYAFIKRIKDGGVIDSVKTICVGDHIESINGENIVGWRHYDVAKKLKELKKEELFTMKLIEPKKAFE
GRIP2_6, Q9C0E4, sequence (Q9C0E4 648-740): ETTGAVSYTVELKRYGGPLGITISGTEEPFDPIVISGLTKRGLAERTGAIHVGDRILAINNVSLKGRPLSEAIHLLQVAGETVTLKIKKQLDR
SCRIB_1, Q14160, sequence (Q14160 718-814): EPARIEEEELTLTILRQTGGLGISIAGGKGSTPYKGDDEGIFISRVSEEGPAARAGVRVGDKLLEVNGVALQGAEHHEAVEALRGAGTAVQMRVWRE
GORASP1, Q9BQQ3, sequence (Q9BQQ3 1-208): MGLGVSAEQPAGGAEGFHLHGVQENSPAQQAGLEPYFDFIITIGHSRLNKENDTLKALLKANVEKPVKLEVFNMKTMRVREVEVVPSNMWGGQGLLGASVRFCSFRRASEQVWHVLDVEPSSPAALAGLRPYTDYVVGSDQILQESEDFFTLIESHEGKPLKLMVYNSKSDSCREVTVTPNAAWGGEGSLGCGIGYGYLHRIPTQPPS
FRMPD2_1, Q68DX3, sequence (Q68DX3 770-861): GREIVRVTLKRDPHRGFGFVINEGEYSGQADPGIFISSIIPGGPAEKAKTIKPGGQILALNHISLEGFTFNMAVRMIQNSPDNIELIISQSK

B1: SLC1A3, P43003 (peptide)
chain: EKPIDSETKM
Turning to B1, the negative logarithm of the Kd (pKd) entry was “below the threshold” in the assay with APBA2_1, Q99767 (setting [1]); “below the threshold” with ARHGEF11, O15085 (setting [1]); “below the threshold” with CASK, O14936 (setting [1]); 3.48 in the assay with DFNB31_1, Q9P202 (setting [1]); “below the threshold” in the assay with DFNB31_3, Q9P202 (setting [1]); “below the threshold” with DLG1_3, Q12959 (setting [1]). Also, the negative logarithm of the Kd (pKd) result is “below the threshold” in the assay with FRMPD2_1, Q68DX3 (setting [1]); “below the threshold” with GIPC2, Q8TF65 (setting [1]); “below the threshold” with GORASP1, Q9BQQ3 (setting [1]); “below the threshold” with GRIP1_4, Q9Y3R0 (setting [1]); “below the threshold” in the assay with GRIP1_5, Q9Y3R0 (setting [1]); “below the threshold” with GRIP2_6, Q9C0E4 (setting [1]). Besides, the negative-log Kd (pKd) result with HTRA3, P83110 (setting [1]) is “below the threshold”; with Inadl_1, Q8NI35 (setting [1]) it was “below the threshold”; with Inadl_6, Q8NI35 (setting [1]) it was “below the threshold”; with LIN7B, Q9HAP6 (setting [1]) it was “below the threshold”; with MAGI2_5, Q86UL8 (setting [1]) it was “below the threshold”; with MAST2, Q6P0Q8 (setting [1]), 5.51. Further, the pKd entry with MPP7, Q5T2T1 (setting [1]) is “below the threshold”; with PDZRN3_1, Q9UPQ7 (setting [1]), “below the threshold”; with RAPGEF6, Q8TEU7 (setting [1]) it was “below the threshold”; with SCRIB_1, Q14160 (setting [1]), 3.5; with SNTB1, Q13884 (setting [1]) it was “below the threshold”; in the assay with TX1BP3, O14907 (setting [1]), “below the threshold”.

B2: FMNL3, Q8IVF7 (peptide)
chain: DAAHHDESNC
Consider B2, for which the pKd entry in the assay with APBA2_1, Q99767 (setting [1]) is “below the threshold”; with ARHGEF11, O15085 (setting [1]) it was “below the threshold”; with CASK, O14936 (setting [1]) it was “below the threshold”; with DFNB31_1, Q9P202 (setting [1]) it was “below the threshold”; with DFNB31_3, Q9P202 (setting [1]), 3.99; in the assay with DLG1_3, Q12959 (setting [1]), “below the threshold”. Also, the pKd entry with FRMPD2_1, Q68DX3 (setting [1]) was “below the threshold”; with GIPC2, Q8TF65 (setting [1]), 3.68; in the assay with GORASP1, Q9BQQ3 (setting [1]) it was “below the threshold”; with GRIP1_4, Q9Y3R0 (setting [1]), “below the threshold”; in the assay with GRIP1_5, Q9Y3R0 (setting [1]), “below the threshold”; with GRIP2_6, Q9C0E4 (setting [1]), “below the threshold”. In addition, the pKd result with HTRA3, P83110 (setting [1]) was “below the threshold”; with Inadl_1, Q8NI35 (setting [1]), “below the threshold”; with Inadl_6, Q8NI35 (setting [1]) it was “below the threshold”; with LIN7B, Q9HAP6 (setting [1]), “below the threshold”; in the assay with MAGI2_5, Q86UL8 (setting [1]) it was “below the threshold”; with MAST2, Q6P0Q8 (setting [1]), 3.81. Moreover, the pKd result with MPP7, Q5T2T1 (setting [1]) was “below the threshold”; in the assay with PDZRN3_1, Q9UPQ7 (setting [1]), “below the threshold”; with RAPGEF6, Q8TEU7 (setting [1]), “below the threshold”; with SCRIB_1, Q14160 (setting [1]), “below the threshold”; with SNTB1, Q13884 (setting [1]) it was “below the threshold”; with TX1BP3, O14907 (setting [1]) it was “below the threshold”.

B3: USH1C, Q9Y6N9 (peptide)
chain: KEYDDELTFF
Turning to B3, the negative logarithm of the Kd (pKd) entry with APBA2_1, Q99767 (setting [2]) is “below the threshold”; with ARHGEF11, O15085 (setting [2]), “below the threshold”; with CASK, O14936 (setting [2]), “below the threshold”; with DFNB31_1, Q9P202 (setting [2]), “below the threshold”; with DFNB31_3, Q9P202 (setting [2]), 3.88; with DLG1_3, Q12959 (setting [2]), “below the threshold”. The pKd entry with FRMPD2_1, Q68DX3 (setting [2]) is “below the threshold”; with GIPC2, Q8TF65 (setting [2]), “below the threshold”; in the assay with GORASP1, Q9BQQ3 (setting [2]), 3.56; with GRIP1_4, Q9Y3R0 (setting [2]), “below the threshold”; in the assay with GRIP1_5, Q9Y3R0 (setting [2]) it was “below the threshold”; with GRIP2_6, Q9C0E4 (setting [2]), “below the threshold”. The pKd result was “below the threshold” in the assay with HTRA3, P83110 (setting [2]); “below the threshold” in the assay with Inadl_1, Q8NI35 (setting [2]); 3.71 with Inadl_6, Q8NI35 (setting [2]); “below the threshold” with LIN7B, Q9HAP6 (setting [2]); 3.96 in the assay with MAGI2_5, Q86UL8 (setting [2]); 5.3 in the assay with MAST2, Q6P0Q8 (setting [2]). In addition, the pKd entry is on record as “below the threshold” in the assay with MPP7, Q5T2T1 (setting [2]); “below the threshold” in the assay with PDZRN3_1, Q9UPQ7 (setting [2]); “below the threshold” with RAPGEF6, Q8TEU7 (setting [2]); “below the threshold” with SCRIB_1, Q14160 (setting [2]); “below the threshold” in the assay with SNTB1, Q13884 (setting [2]); “below the threshold” with TX1BP3, O14907 (setting [2]).

B4: CNTNAP4, Q9C0A0 (peptide)
chain: VNENQKEYFF
Consider B4, for which the negative-log Kd (pKd) entry in the assay with APBA2_1, Q99767 (setting [2]) is “below the threshold”; with ARHGEF11, O15085 (setting [2]), “below the threshold”; with CASK, O14936 (setting [2]) it was 3.79; with DFNB31_1, Q9P202 (setting [2]) it was “below the threshold”; with DFNB31_3, Q9P202 (setting [2]) it was “below the threshold”; with DLG1_3, Q12959 (setting [2]), “below the threshold”. The pKd result was “below the threshold” with FRMPD2_1, Q68DX3 (setting [2]); “below the threshold” in the assay with GIPC2, Q8TF65 (setting [2]); “below the threshold” with GORASP1, Q9BQQ3 (setting [2]); “below the threshold” with GRIP1_4, Q9Y3R0 (setting [2]); “below the threshold” in the assay with GRIP1_5, Q9Y3R0 (setting [2]); 5.04 with GRIP2_6, Q9C0E4 (setting [2]). In addition, the pKd entry with HTRA3, P83110 (setting [2]) is “below the threshold”; with Inadl_1, Q8NI35 (setting [2]) it was 3.72; with Inadl_6, Q8NI35 (setting [2]), 3.86; with LIN7B, Q9HAP6 (setting [2]), “below the threshold”; with MAGI2_5, Q86UL8 (setting [2]) it was 3.54; in the assay with MAST2, Q6P0Q8 (setting [2]), 5.08. Further, the pKd is 5.02 with MPP7, Q5T2T1 (setting [2]); “below the threshold” in the assay with PDZRN3_1, Q9UPQ7 (setting [2]); “below the threshold” in the assay with RAPGEF6, Q8TEU7 (setting [2]); “below the threshold” with SCRIB_1, Q14160 (setting [2]); “below the threshold” with SNTB1, Q13884 (setting [2]); “below the threshold” with TX1BP3, O14907 (setting [2]).
